Measured values: patent US20230265179A1 (TWIST BIOSCIENCE, published 2023)

T1: IL1RL1 (UniProt Q01638 19-328, limits assumed)
T1 construct: SPR analyte
T1 sequence (looked up): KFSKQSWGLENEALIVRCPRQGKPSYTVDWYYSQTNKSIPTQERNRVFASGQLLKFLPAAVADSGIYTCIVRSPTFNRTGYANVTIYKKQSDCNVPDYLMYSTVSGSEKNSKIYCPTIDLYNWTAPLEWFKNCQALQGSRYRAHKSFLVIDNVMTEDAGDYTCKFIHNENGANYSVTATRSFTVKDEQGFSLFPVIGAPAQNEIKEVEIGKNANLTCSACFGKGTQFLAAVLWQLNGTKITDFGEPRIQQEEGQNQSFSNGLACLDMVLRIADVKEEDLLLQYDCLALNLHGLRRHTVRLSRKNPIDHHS

T2: IL1RL1 over-expressed on Expi293 cells (UniProt Q01638 19-556, limits assumed)
T2 construct: whole, on cells; Target of the flow cytometry MFI ratio (over-expressing cells over parent cells); also called cytokine over-expressing Expi293 cells
T2 sequence (looked up): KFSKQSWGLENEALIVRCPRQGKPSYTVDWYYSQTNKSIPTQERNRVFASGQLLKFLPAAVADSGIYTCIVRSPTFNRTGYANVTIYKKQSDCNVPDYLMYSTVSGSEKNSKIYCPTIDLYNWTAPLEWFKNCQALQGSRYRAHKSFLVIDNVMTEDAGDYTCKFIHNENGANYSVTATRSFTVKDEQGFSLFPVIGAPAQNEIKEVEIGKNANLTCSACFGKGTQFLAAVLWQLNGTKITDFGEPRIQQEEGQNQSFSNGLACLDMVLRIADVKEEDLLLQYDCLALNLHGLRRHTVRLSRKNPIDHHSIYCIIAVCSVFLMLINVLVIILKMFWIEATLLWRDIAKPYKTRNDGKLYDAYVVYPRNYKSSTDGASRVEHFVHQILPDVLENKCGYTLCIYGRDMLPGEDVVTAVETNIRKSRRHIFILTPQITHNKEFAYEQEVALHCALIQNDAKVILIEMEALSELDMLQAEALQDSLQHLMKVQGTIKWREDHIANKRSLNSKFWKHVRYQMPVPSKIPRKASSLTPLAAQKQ


Assays:
IL1RL1 = biological target: T1, IL1RL1; assay: SPR (Carterra LSA), antibody amine-coupled, 1:1 model;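 also: HC30M sensor chip at 25 °C in HBS-TE, analyte at rising concentrations in buffer containing 0.5 mg/mL BSA, 5 min association then 15 min dissociation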
Procedure: SPR experiments were performed on a Carterra LSA SPR biosensor equipped with a HC30M chip at 25° C. in HBS-TE. Antibodies were diluted to 10 μg/mL and amine-coupled to the sensor chip by EDC/NHS activation, followed by ethanolamine HCl quenching. Increasing concentrations of analyte were flowed over the sensor chip in HBS-TE with 0.5 mg/mL BSA with 5-minute association and 15-minute dissociation. Following each injection cycle the surface was regenerated with 2× 30-second injections of IgG elution buffer (Thermo). Data were analyzed in Carterra's Kinetics Tool software with 1:1 binding model.

[1] = biological target: T2, IL1RL1 over-expressed on Expi293 cells; assay: flow cytometry, 100 nM antibody, over-expressing Expi293 / parent cells
Procedure: All incubations and washes were in buffer containing PBS+1% BSA. MFI Ratio is defined by the mean fluorescence intensity (MFI) of the cytokine over-expressing Expi293 cell over the Expi293 parent cell. […] EC50 was calculated in GraphPad Prism.

Row | Binder | Kd (IL1RL1) | koff (IL1RL1) | kon (IL1RL1) | 100 nM FACS (MFI Ratio) [1]
1 | IL1RL1-14 (Fc fusion, not shown: a dimerising Fc or GST, VHH-Fc on IgG2 Fc) VHH: EVQLVESGGGLVQPGGSLRLSCAASGDISSIVAMGWFRQAPGKEREWVSSIDTGGGSNIVYADSVKGRFTISADNSKNTAYLQMNSLKPEDTAVYYCAAGLLDVQYVRQAAGYSWGQGTLVTVSS | ≤ 0.0744 nM | ≤ 1e-05 s⁻¹ | 134000 M⁻¹ s⁻¹ | 515 MFI ratio
2 | IL1RL1-1 (Fc fusion, not shown: a dimerising Fc or GST, VHH-Fc on IgG2 Fc) VHH: EVQLVESGGGLVQPGGSLRLSCAASGFTLDAWPMSWFRQAPGKEREVVAVIYTSDGSTYYADSVKGRFTISADNSKNTAYLQMNSLKPEDTAVYYCAASKWYGGFGDTDIEWGQGTLVTVSS | 0.584 nM | 0.000101 s⁻¹ | 172000 M⁻¹ s⁻¹ | 660 MFI ratio
3 | IL1RL1-7 (Fc fusion, not shown: a dimerising Fc or GST, VHH-Fc on IgG2 Fc) VHH: EVQLVESGGGLVQPGGSLRLSCAASGRTSNIYAMGWFRQAPGKEREPVASITPGGRFPAYADSVKGRFTISADNSKNTAYLQMNSLKPEDTAVYYCSTLYYSGLDPVDYWGQGTLVTVSS | ≤ 0.0757 nM | ≤ 1e-05 s⁻¹ | 132000 M⁻¹ s⁻¹ | 586 MFI ratio
4 | IL1RL1-90 (Fc fusion, not shown: a dimerising Fc or GST, VHH-Fc on IgG2 Fc) VHH: EVQLVESGGGLVQPGGSLRLSCAASGVTLDLYAMGWFRQAPGKEREAVASISSSGSSIYYADSVKGRFTISADNSKNTAYLQMNSLKPEDTAVYYCAANYGGSVLYNWGQGTLVTVSS | ≤ 0.078 nM | ≤ 1e-05 s⁻¹ | 128000 M⁻¹ s⁻¹ | 105 MFI ratio
5 | IL1RL1-8 (Fc fusion, not shown: a dimerising Fc or GST, VHH-Fc on IgG2 Fc) VHH: EVQLVESGGGLVQPGGSLRLSCAASGRTSNIYAMGWFRQAPGKEREFVASLSASGSLTWYADSVKGRFTISADNSKNTAYLQMNSLKPEDTAVYYCAANYGGSVLYNWGQGTLVTVSS | ≤ 0.166 nM | ≤ 1e-05 s⁻¹ | 60300 M⁻¹ s⁻¹ | 298 MFI ratio
6 | IL1RL1-5 (Fc fusion, not shown: a dimerising Fc or GST, VHH-Fc on IgG2 Fc) VHH: EVQLVESGGGLVQPGGSLRLSCAASGRTFSSIVMGWFRQAPGKEREMVAVIIDSRTTKYADSVKGRFTISADNSKNTAYLQMNSLKPEDTAVYYCAAVGGATTVTASEWDWGQGTLVTVSS | 0.846 nM | 0.000162 s⁻¹ | 191000 M⁻¹ s⁻¹ | 508 MFI ratio
7 | IL1RL1-53 (Fc fusion, not shown: a dimerising Fc or GST, VHH-Fc on IgG2 Fc) VHH: EVQLVESGGGLVQPGGSLRLSCAASGRTPSIIAMGWFRQAPGKERELVAVIIDSRTTKYADSVKGRFTISADNSKNTAYLQMNSLKPEDTAVYYCAAVGGATTVTASEWDWGQGTLVTVSS | 0.927 nM | 0.000267 s⁻¹ | 289000 M⁻¹ s⁻¹ | 441 MFI ratio
8 | IL1RL1-4 (Fc fusion, not shown: a dimerising Fc or GST, VHH-Fc on IgG2 Fc) VHH: EVQLVESGGGLVQPGGSLRLSCAASGNAFRSTVMGWFRQAPGKEREFVAVIIDSRTTKYADSVKGRFTISADNSKNTAYLQMNSLKPEDTAVYYCAAVGGATTVTASEWDWGQGTLVTVSS | ≤ 0.0574 nM | ≤ 1e-05 s⁻¹ | 174000 M⁻¹ s⁻¹ | 472 MFI ratio
9 | IL1RL1-74 (Fc fusion, not shown: a dimerising Fc or GST, VHH-Fc on IgG2 Fc) VHH: EVQLVESGGGLVQPGGSLRLSCAASGFTFSSAIMGWFRQAPGKERELVAVIIDSRTTKYADSVKGRFTISADNSKNTAYLQMNSLKPEDTAVYYCAAVGGATTVTASEWDWGQGTLVTVSS | ≤ 0.0505 nM | ≤ 1e-05 s⁻¹ | 198000 M⁻¹ s⁻¹ | 521 MFI ratio
10 | IL1RL1-12 (Fc fusion, not shown: a dimerising Fc or GST, VHH-Fc on IgG2 Fc) VHH: EVQLVESGGGLVQPGGSLRLSCAASGSIFGLNAMGWFRQAPGKEREFVAAISRFGSTDYADSVKGRFTISADNSKNTAYLQMNSLKPEDTAVYYCARSYCTADSCYSSWFDPWGQGTLVTVSS | 4.08 nM | 0.000326 s⁻¹ | 80100 M⁻¹ s⁻¹ | 437 MFI ratio
11 | IL1RL1-10 (Fc fusion, not shown: a dimerising Fc or GST, VHH-Fc on IgG2 Fc) VHH: EVQLVESGGGLVQPGGSLRLSCAASGRTSNIYAMGWFRQAPGKEREWVASISTSGSTITPYADSVKGRFTISADNSKNTAYLQMNSLKPEDTAVYYCAAVYVSTWGNGYDWGQGTLVTVSS | 2.02 nM | 0.000241 s⁻¹ | 119000 M⁻¹ s⁻¹ | 398 MFI ratio
12 | IL1RL1-6 (Fc fusion, not shown: a dimerising Fc or GST, VHH-Fc on IgG2 Fc) VHH: EVQLVESGGGLVQPGGSLRLSCAASGRTISTYGMGWFRQAPGKEREWVSGINRDGSTYYADRVKGRFTISADNSKNTAYLQMNSLKPEDTAVYYCALRRLSPPPLLDWGQGTLVTVSS | 0.149 nM | 3.7e-05 s⁻¹ | 248000 M⁻¹ s⁻¹ | 128 MFI ratio
13 | IL1RL1-11 (Fc fusion, not shown: a dimerising Fc or GST, VHH-Fc on IgG2 Fc) VHH: EVQLVESGGGLVQPGGSLRLSCAASGRTFNWYAMGWFRQAPGKEREWVSSIGIAGTPTFYADSVKGRFTISADNSKNTAYLQMNSLKPEDTAVYYCAAVSSNSETFDWGQGTLVTVSS | 12.9 nM | 0.000681 s⁻¹ | 52800 M⁻¹ s⁻¹ | 446 MFI ratio
14 | IL1RL1-3 (Fc fusion, not shown: a dimerising Fc or GST) VHH: EVQLVESGGGLVQPGGSLRLSCAASGRTFSMGWFRQAPGKEREWVSSIGIAGTPTFYADSVKGRFTISADNSKNTAYLQMNSLKPEDTAVYYCASTDDYGVDWGQGTLVTVSS | ≤ 0.0524 nM | ≤ 1e-05 s⁻¹ | 191000 M⁻¹ s⁻¹ | 492 MFI ratio
15 | IL1RL1-86 (Fc fusion, not shown: a dimerising Fc or GST, VHH-Fc on IgG2 Fc) VHH: EVQLVESGGGLVQPGGSLRLSCAASGGTFSTYAMGWFRQAPGKEREWVASISTSGSTITPYADSVKGRFTISADNSKNTAYLQMNSLKPEDTAVYYCAAIAYEEGVYRWDWGQGTLVTVSS | ≤ 0.0762 nM | ≤ 1e-05 s⁻¹ | 131000 M⁻¹ s⁻¹ | 204 MFI ratio
16 | IL1RL1-81 (Fc fusion, not shown: a dimerising Fc or GST, VHH-Fc on IgG2 Fc) VHH: EVQLVESGGGLVQPGGSLRLSCAASGVTLDLYAMGWFRQAPGKEREWVASISTSGSTITPYADSVKGRFTISADNSKNTAYLQMNSLKPEDTAVYYCAAIAYEEGVYRWDWGQGTLVTVSS | 0.285 nM | 4.51e-05 s⁻¹ | 159000 M⁻¹ s⁻¹ | 217 MFI ratio
17 | IL1RL1-2 (Fc fusion, not shown: a dimerising Fc or GST, VHH-Fc on IgG2 Fc) VHH: EVQLVESGGGLVQPGGSLRLSCAASGGTFSAYAMGWFRQAPGKEREWVASISTSGSTITPYADSVKGRFTISADNSKNTAYLQMNSLKPEDTAVYYCAAIAYEEGVYRWDWGQGTLVTVSS | 0.265 nM | 3.11e-05 s⁻¹ | 118000 M⁻¹ s⁻¹ | 277 MFI ratio
18 | IL1RL1-82 (Fc fusion, not shown: a dimerising Fc or GST, VHH-Fc on IgG2 Fc) VHH: EVQLVESGGGLVQPGGSLRLSCAASGRTFSTLAMGWFRQAPGKEREWVASISTSGSTITPYADSVKGRFTISADNSKNTAYLQMNSLKPEDTAVYYCAAIAYEEGVYRWDWGQGTLVTVSS | ≤ 0.128 nM | ≤ 1e-05 s⁻¹ | 78400 M⁻¹ s⁻¹ | 344 MFI ratio
19 | IL1RL1-52 (Fc fusion, not shown: a dimerising Fc or GST, VHH-Fc on IgG2 Fc) VHH: EVQLVESGGGLVQPGGSLRLSCAASGGTISTYAMGWFRQAPGKEREWVASISTSGSTITPYADSVKGRFTISADNSKNTAYLQMNSLKPEDTAVYYCAAIAYEEGVYRWDWGQGTLVTVSS | 0.121 nM | 3.48e-05 s⁻¹ | 288000 M⁻¹ s⁻¹ | 225 MFI ratio
20 | IL1RL1-18 (Fc fusion, not shown: a dimerising Fc or GST, VHH-Fc on IgG2 Fc) VHH: EVQLVESGGGLVQPGGSLRLSCAASGVTLDLYAMGWFRQAPGKEREWVASISTSGSTITPYADSVKGRFTISADNSKNTAYLQMNSLKPEDTAVYYCAAIAHEEGVYRWDWGQGTLVTVSS | 0.312 nM | 3.95e-05 s⁻¹ | 126000 M⁻¹ s⁻¹ | 277 MFI ratio
